Publication PMC4227867, “Analysis of Nidogen-1/Laminin γ1 Interaction by Cross-Linking, Mass Spectrometry, and Computational Modeling Reveals Multiple Binding Modes” (PLoS ONE, 2014)
Blank lines part the entries; values can stand above or below the molecule they belong to.

Columns and labels:
full-length nidogen-1 [1] = molecular target: T1, full-length nidogen-1 (murine, UniProt P10493 29-1245); experiment: SPR; nidogen-1 immobilised by amine coupling on a CM5 chip; laminin variants as mobile analytes; single-cycle kinetics, 25°C, 20 mM HEPES, 100 mM NaCl, 0.05% Tween 20, pH 7.5; 1:1 binding model; apparent Kd
T1 construct: For photo-cross-linking the protein was made in Leu- and Met-depleted medium with photo-Met and photo-Leu; 13-25% of all leucines and methionines were partially replaced; also called entactin; source: HEK 293 EBNA cells, purified (Nickel-NTA Superflow); not shown: (His)6, N-terminal, kept
T1 sequence (looked up): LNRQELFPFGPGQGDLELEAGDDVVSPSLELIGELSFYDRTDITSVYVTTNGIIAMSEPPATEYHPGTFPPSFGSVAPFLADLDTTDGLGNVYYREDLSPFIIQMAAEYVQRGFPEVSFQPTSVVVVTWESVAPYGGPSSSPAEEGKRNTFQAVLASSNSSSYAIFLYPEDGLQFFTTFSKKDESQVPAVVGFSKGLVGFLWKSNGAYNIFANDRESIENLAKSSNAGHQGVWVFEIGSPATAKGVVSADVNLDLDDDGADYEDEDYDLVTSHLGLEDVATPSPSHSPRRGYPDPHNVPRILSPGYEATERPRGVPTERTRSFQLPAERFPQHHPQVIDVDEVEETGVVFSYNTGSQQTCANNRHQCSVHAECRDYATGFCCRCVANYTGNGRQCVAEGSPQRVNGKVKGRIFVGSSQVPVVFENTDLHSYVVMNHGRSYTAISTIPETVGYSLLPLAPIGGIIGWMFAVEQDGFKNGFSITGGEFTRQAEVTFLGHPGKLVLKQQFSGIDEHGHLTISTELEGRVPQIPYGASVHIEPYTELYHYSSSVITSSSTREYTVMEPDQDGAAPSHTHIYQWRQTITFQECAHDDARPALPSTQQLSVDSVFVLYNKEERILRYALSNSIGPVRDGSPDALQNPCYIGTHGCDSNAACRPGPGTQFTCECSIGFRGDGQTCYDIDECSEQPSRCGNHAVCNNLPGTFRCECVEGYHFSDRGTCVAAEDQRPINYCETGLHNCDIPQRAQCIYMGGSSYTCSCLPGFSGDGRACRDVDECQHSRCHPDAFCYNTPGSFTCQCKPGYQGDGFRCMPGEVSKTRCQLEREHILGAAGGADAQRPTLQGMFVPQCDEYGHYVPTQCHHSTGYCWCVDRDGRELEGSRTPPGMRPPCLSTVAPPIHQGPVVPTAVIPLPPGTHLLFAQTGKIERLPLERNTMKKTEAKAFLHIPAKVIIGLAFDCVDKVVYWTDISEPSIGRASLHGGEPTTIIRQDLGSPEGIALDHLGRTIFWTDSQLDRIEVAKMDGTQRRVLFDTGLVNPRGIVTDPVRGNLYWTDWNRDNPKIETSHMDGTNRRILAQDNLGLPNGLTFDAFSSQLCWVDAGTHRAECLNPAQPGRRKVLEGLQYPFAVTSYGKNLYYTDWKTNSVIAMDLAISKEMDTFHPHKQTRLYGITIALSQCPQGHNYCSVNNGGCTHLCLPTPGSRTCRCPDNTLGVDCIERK

[2] = molecular target: laminin γ1 LEb2–4 N836D (murine); experiment: ELISA; laminin fragments coated at 10 µg/ml in TBS overnight at 4°C; nidogen-1 0.03 nM to 234 nM in TBS-T/1% BSA, 1 h at room temperature; detected by anti-(His)6 antibody; apparent Kd
[3] = molecular target: laminin γ1 short arm (murine); experiment: as above
full-length nidogen-1 [4] = molecular target: T1, full-length nidogen-1; experiment: as above; conditions: both partners purified

B1: full-length nidogen-1 (natural protein)
chain: T1 sequence (looked up)
- Kd [2]: 34 nM
- Kd [3]: 1.1 nM

B2: laminin γ1 LEb2–4 (domain or fragment, murine)
chain: QPCPCPGGSSCAIVPKTKEVVCTHCPTGTAGKRCELCDDGYFGDPLGSNGPVRLCRPCQCNDNIDPNAVGNCNRLTGECLKCIYNTAGFYCDRCKEGFFGNPLAPNPADKCKACACNPYGTVQQQSSCNPVTGQCQCLPHVSGRDCGTCDPGYYNLQSGQGCER
notes: For photo-cross-linking made with photo-Met and photo-Leu partially incorporated; the limits of LEb2–4 may be marked there; also called laminin γ1 LEb2–4 wild type; LEb2–4 fragment; source: HEK 293 EBNA cells, purified (Strep-Tactin sepharose)
- Kd (full-length nidogen-1 [4]): 1.4 nM

The remaining lines, values ahead:

- Kd (full-length nidogen-1 [1]): 12 nM
Molecule: laminin γ1 short arm (domain or fragment)

- Kd (full-length nidogen-1 [4]): 45 nM
B3: laminin γ1 short arm N836D (domain or fragment)
chain: AMDECADEGGRPQRCMPEFVNAAFNVTVVATNTCGTPPEEYCVQTGVTGVTKSCHLCDAGQQHLQHGAAFLTDYNNQADTTWWQSQTMLAGVQYPNSINLTLHLGKAFDITYVRLKFHTSRPESFAIYKRTREDGPWIPYQYYSGSCENTYSKANRGFIRTGGDEQQALCTDEFSDISPLTGGNVAFSTLEGRPSAYNFDNSPVLQEWVTATDIRVTLNRLNTFGDEVFNEPKVLKSYYYAISDFAVGGRCKCNGHASECVKNEFDKLMCNCKHNTYGVDCEKCLPFFNDRPWRRATAESASESLPCDCNGRSQECYFDPELYRSTGHGGHCTNCRDNTDGAKCERCRENFFRLGNTEACSPCHCSPVGSLSTQCDSYGRCSCKPGVMGDKCDRCQPGFHSLTEAGCRPCSCDLRGSTDECNVETGRCVCKDNVEGFNCERCKPGFFNLESSNPKGCTPCFCFGHSSVCTNAVGYSVYDISSTFQIDEDGWRVEQRDGSEASLEWSSDRQDIAVISDSYFPRYFIAPVKFLGNQVLSYGQNLSFSFRVDRRDTRLSAEDLVLEGAGLRVSVPLIAQGNSYPSETTVKYIFRLHEATDYPWRPALSPFEFQKLLNNLTSIKIRGTYSERTAGYLDDVTLQSARPGPGVPATWVESCTCPVGYGGQFCETCLPGYRRETPSLGPYSPCVLCTCNGHSETCDPETGVCDCRDNTAGPHCEKCSDGYYGDSTLGTSSDCQPCPCPGGSSCAIVPKTKEVVCTHCPTGTAGKRCELCDDGYFGDPLGSNGPVRLCRPCQCNDNIDPDAVGNCNRLTGECLKCIYNTAGFYCDRCKEGFFGNPLAPNPADKCKACACNPYGTVQQQSSCNPVTGQCQCLPHVSGRDCGTCDPGYYNLQSGQGCERCDCHALGSTNGQCDIRTGQCECQPGITGQHCERCETNHFGFGPEGCKPCDCHHEGSL
modifications: Secreted from HEK293 EBNA cells, so disulfide-bonded LE modules and likely N-glycans. Double Strep tag II omitted. Paper numbering (Asn-836) is one higher than UniProt; classical Asn-802 + 33-residue
